Results taken from paper PMC10121161, “Delivering a toxic metal to the active site of urease” (Science Advances, 2023).

B1: HpUreD(E140A) with C-terminal Strep-tag II, in the cryo-EM sample (natural protein)
chain: MNTYAQESKLRLKTKIGADGRCVIEDNFFTPPFKLMAPFYPKDDLAEIMLLAVSPGMMRGDAQDVQLNIGPNCKLRITSQSFEKIHNTEDGFASRDMHIVVGENAFLDFAPFPLIPFENAHFKGNTTISLRSSSQLLYSAIIVAGRVARNELFKFNRLHTKISILQDEKPIYYDNTILDPKTTDLNNMCMFDGYTHYLNLVLVNCPIELSGVRECIEESEGVDGAVSETASSHLCVKALAKGSEPLLHLREKIARLVTQTTTQKV
notes: Helicobacter pylori urease accessory protein HpUreD (encoded by ureH); also called UreH

Tests used:
Experiment in all cases: cryo-EM structure; HpUreFD/urease complex coexpressed in E. coli, purified by Strep-Tactin XT and Superose-6 SEC in 50 mM Hepes, 200 mM NaCl, 0.5 mM TCEP (pH 7.5); 0.5 mg/ml on grids; tetrahedral symmetry; 2.3 Å
Conditions in all cases: both partners purified
[1] = target: T1, H. pylori urease (HpUreAB), in the cryo-EM sample (Helicobacter pylori, UniProt P14916 1-238; P69996 1-569)
T1 construct: Helicobacter pylori urease subunit HpUreA (γ and β domains); Helicobacter pylori urease subunit HpUreB (α domain); dodecamer of HpUreAB catalytic units (four trimers); copies: 12 + 12
T1 sequence (P69996 whole entry, one chain of several): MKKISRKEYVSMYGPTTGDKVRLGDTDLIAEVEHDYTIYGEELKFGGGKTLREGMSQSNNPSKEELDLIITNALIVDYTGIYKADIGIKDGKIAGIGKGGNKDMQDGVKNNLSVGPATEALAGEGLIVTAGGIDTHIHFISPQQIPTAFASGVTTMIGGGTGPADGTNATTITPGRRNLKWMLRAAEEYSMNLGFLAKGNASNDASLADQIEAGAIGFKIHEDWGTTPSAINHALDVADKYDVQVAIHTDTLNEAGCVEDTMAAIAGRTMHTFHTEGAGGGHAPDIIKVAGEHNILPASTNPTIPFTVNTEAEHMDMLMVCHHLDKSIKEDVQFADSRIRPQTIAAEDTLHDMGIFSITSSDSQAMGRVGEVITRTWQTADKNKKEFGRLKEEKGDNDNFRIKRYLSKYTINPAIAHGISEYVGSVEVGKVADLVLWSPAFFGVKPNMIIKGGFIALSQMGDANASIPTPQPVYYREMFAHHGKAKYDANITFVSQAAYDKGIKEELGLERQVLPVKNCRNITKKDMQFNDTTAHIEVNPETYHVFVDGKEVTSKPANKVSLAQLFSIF

[2] = target: T2, HpUreB (H. pylori urease subunit, α domain), in the cryo-EM sample (Helicobacter pylori, UniProt P69996 1-569)
T2 construct: Helicobacter pylori urease subunit HpUreB (α domain)
T2 sequence (P69996 whole entry): as the sequence (P69996 whole entry, one chain of several) above

[3] = target: B1

Binder | binding result [1] | binding result [2] | binding result [3]
HpUreF(R179A/Y183D)/HpUreD(E140A)-Strep complex, in the cryo-EM sample (complex, Helicobacter pylori urease accessory protein HpUreF; Helicobacter pylori urease accessory protein HpUreD (encoded by ureH); one copy of HpUreF and one of HpUreD per urease catalytic unit; also called HpUreFD) chain 1: MDKGKSVKSTEKSVGMPPKTPKTDNNAHVDNEFLILQVNDAVFPIGSYTHSFGLETYIQQKKVTNKESALEYLKANLSSQFLYTEMLSLKLTYESALQQDLKKILGVEEVIMLSTSPMELRLANQKLGNRFIKTLQAMNELDMGEFFNAYAQKTKDPTHATSYGVFAASLGIELKKALAHYLDAQTSNMVINCVKSVPLSQNDGQKILLSLQSPFNQLIEKTLELDESHLCTASVQNDIKAMQHESLYSRLYMS chain 2: MNTYAQESKLRLKTKIGADGRCVIEDNFFTPPFKLMAPFYPKDDLAEIMLLAVSPGMMRGDAQDVQLNIGPNCKLRITSQSFEKIHNTEDGFASRDMHIVVGENAFLDFAPFPLIPFENAHFKGNTTISLRSSSQLLYSAIIVAGRVARNELFKFNRLHTKISILQDEKPIYYDNTILDPKTTDLNNMCMFDGYTHYLNLVLVNCPIELSGVRECIEESEGVDGAVSETASSHLCVKALAKGSEPLLHLREKIARLVTQTTTQKV | binds |  | 
B1 |  | binds | 
HpUreF(R179A/Y183D), in the cryo-EM sample (natural protein, Helicobacter pylori urease accessory protein HpUreF; everywhere else R179A/Y183D) MDKGKSVKSTEKSVGMPPKTPKTDNNAHVDNEFLILQVNDAVFPIGSYTHSFGLETYIQQKKVTNKESALEYLKANLSSQFLYTEMLSLKLTYESALQQDLKKILGVEEVIMLSTSPMELRLANQKLGNRFIKTLQAMNELDMGEFFNAYAQKTKDPTHATSYGVFAASLGIELKKALAHYLDAQTSNMVINCVKSVPLSQNDGQKILLSLQSPFNQLIEKTLELDESHLCTASVQNDIKAMQHESLYSRLYMS |  |  | binds
HpUreA (H. pylori urease subunit, fusion of the γ and β domains), in the cryo-EM sample (natural protein, Helicobacter pylori urease subunit HpUreA (γ and β domains)) MKLTPKELDKLMLHYAGELAKKRKEKGIKLNYVEAVALISAHIMEEARAGKKTAAELMQEGRTLLKPDDVMDGVASMIHEVGIEAMFPDGTKLVTVHTPIEANGKLVPGELFLKNEDITINEGKKAVSVKVKNVGDRPVQIGSHFHFFEVNRCLDFDREKTFGKRLDIASGTAVRFEPGEEKSVELIDIGGNRRIFGFNALVDRQADNESKKIALHRAKERGFHGAKSDDNYVKTIKE |  | binds | binds
